In patent publication US20240391984A1:

What was measured:
[1] = molecular target: polyclonal IgG (Gammanorm, Octapharma, Sweden); assay: SPR (Biacore 8K+), variant amine-coupled to CM5, Gammanorm as analyte, 1:1 kinetic fit
[2] = molecular target: polyclonal IgG (Gammanorm, Octapharma, Sweden); assay: SPR (Biacore 8K+), variant amine-coupled to CM5, Gammanorm as analyte, steady state fit
[3] = molecular target: polyclonal IgG (Gammanorm, Octapharma, Sweden); assay: as above; remark: listed apart in the source
[4] = molecular target: polyclonal IgG (Gammanorm, Octapharma, Sweden); assay: SPR (Biacore 8K+), variant amine-coupled to CM5, Gammanorm as analyte, 1:1 kinetic fit; remark: listed apart in the source

Binder | Kd [1] | Kd [2] | Kd [3] | Kd [4]
pAM261 (Protein L C4 domain; N10H, N45H, N60Y) (designed binder) PKEEVTIKVHLIFADGKTQTAEFKGTFEEATAEAYRYADLLAKVHGEYTADLEDGGYTIYIKFAGKEQPGENPG | 12 nM | 43 nM | – | –
pAM258 (Protein L C2b domain; N10H, N45H, N60Y) (designed binder) PKEEVTIKVHLIFADGKTQTAEFKGTFEEATAKAYAYADLLAKEHGEYTADLEDGGYTIYIKFAGKETPETPEE | 17 nM | 45 nM | – | –
pAM260 (Protein L C3b domain; N10H, N45H, N60Y) (designed binder) PKEEVTIKVHLIFADGKIQTAEFKGTFEEATAKAYAYADLLAKEHGEYTADLEDGGYTIYIKFAGKETPETPEE | 18 nM | 51 nM | – | –
pAM251 (Protein L B2 domain; N10H, N45H, N60Y) (designed binder) PKEEVTIKAHLIYADGKTQTAEFKGTFEEAAAEAYRYADALKKDHGEYTVDVADKGYTLYIKFAGKEKTPEE | 20 nM | 55 nM | – | –
pAM132 (B3 domain of Protein L; pos 10 Y, pos 45 N, pos 60 N) (designed binder) PKEEVTIKAYLIYADGKTQTAEFKGTFEEATAEAYRYADLLAKENGKYTVDVADKGYTLNIKFAGKEKTPEE | – | – | 50 nM | 15 nM
pAM118 (B3 domain of Protein L; pos 10 N, pos 45 N, pos 60 Y) (designed binder) PKEEVTIKANLIYADGKTQTAEFKGTFEEATAEAYRYADLLAKENGKYTVDVADKGYTLYIKFAGKEKTPEE | – | – | 68 nM | 20 nM
pAM128 (previously disclosed benchmarking Protein L ligand; B3 domain with pos 10 Q, pos 45 A, pos 60 Q) (designed binder) PKEEVTIKAQLIYADGKTQTAEFKGTFEEATAEAYRYADLLAKEAGKYTVDVADKGYTLQIKFAGKEKTPEE | – | – | 60 nM | 17 nM
pAM135 (B3 domain of Protein L; pos 10 Y, pos 45 N, pos 60 Q) (designed binder) PKEEVTIKAYLIYADGKTQTAEFKGTFEEATAEAYRYADLLAKENGKYTVDVADKGYTLQIKFAGKEKTPEE | – | – | 61 nM | 17 nM
pAM140 (B3 domain of Protein L; pos 10 Y, pos 45 H, pos 60 Y) (designed binder) PKEEVTIKAYLIYADGKTQTAEFKGTFEEATAEAYRYADLLAKEHGKYTVDVADKGYTLYIKFAGKEKTPEE | – | – | 96 nM | 27 nM
pAM237 (Protein L B2 domain; N10H, N45H, N60Q) (designed binder) PKEEVTIKAHLIYADGKTQTAEFKGTFEEAAAEAYRYADALKKDHGEYTVDVADKGYTLQIKFAGKEKTPEE | 27 nM | 72 nM | – | –
pAM119 (B3 domain of Protein L; pos 10 N, pos 45 A, pos 60 Q) (designed binder) PKEEVTIKANLIYADGKTQTAEFKGTFEEATAEAYRYADLLAKEAGKYTVDVADKGYTLQIKFAGKEKTPEE | – | – | 58 nM | 16 nM
pAM136 (B3 domain of Protein L; pos 10 Y, pos 45 N, pos 60 Y) (designed binder) PKEEVTIKAYLIYADGKTQTAEFKGTFEEATAEAYRYADLLAKENGKYTVDVADKGYTLYIKFAGKEKTPEE | – | – | 77 nM | 19 nM
pAM125 (B3 domain of Protein L; pos 10 Q, pos 45 H, pos 60 N) (designed binder) PKEEVTIKAQLIYADGKTQTAEFKGTFEEATAEAYRYADLLAKEHGKYTVDVADKGYTLNIKFAGKEKTPEE | – | – | 50 nM | 15 nM
pAM253 (Protein L B4 domain; N10H, N45H, N60Y) (designed binder) PKEEVTIKAHLIYADGKTQTAEFKGTFAEATAEAYRYADLLAKEHGKYTADLEDGGYTIYIRFAGKKVDEKPEE | 14 nM | 54 nM | – | –
pAM248 (D1 domain; N10H, N45H, N60Q) (designed binder) PKEEVTIKAHLIFADGKTQTAEFKGTFEEATAEAYRYADLLAKVHGEYTADLEDGGYTIQIKFAGKEQPGEN | 16 nM | 56 nM | – | –

Second part, the binder after the results:

Kd [1] | Kd [2] | Kd [3] | Kd [4] | Binder
18 nM | 50 nM | – | – | pAM244 (Protein L C2b domain; N10H, N45H, N60Q) (designed binder) PKEEVTIKVHLIFADGKTQTAEFKGTFEEATAKAYAYADLLAKEHGEYTADLEDGGYTIQIKFAGKETPETPEE
– | – | 62 nM | 15 nM | pAM127 (B3 domain of Protein L; pos 10 Q, pos 45 N, pos 60 Y) (designed binder) PKEEVTIKAQLIYADGKTQTAEFKGTFEEATAEAYRYADLLAKENGKYTVDVADKGYTLYIKFAGKEKTPEE
16 nM | 69 nM | – | – | pAM252 (Protein L B3 domain; N10H, N45H, N60Y) (designed binder) PKEEVTIKAHLIYADGKTQTAEFKGTFEEATAEAYRYADLLAKEHGKYTVDVADKGYTLYIKFAGKEKTPEE
– | – | 60 nM | 18 nM | pAM117 (B3 domain of Protein L; pos 10 N, pos 45 N, pos 60 Q) (designed binder) PKEEVTIKANLIYADGKTQTAEFKGTFEEATAEAYRYADLLAKENGKYTVDVADKGYTLQIKFAGKEKTPEE
– | – | 63 nM | 14 nM | pAM129 (B3 domain of Protein L; pos 10 Q, pos 45 A, pos 60 Y) (designed binder) PKEEVTIKAQLIYADGKTQTAEFKGTFEEATAEAYRYADLLAKEAGKYTVDVADKGYTLYIKFAGKEKTPEE
– | – | 71 nM | 22 nM | pAM139 (B3 domain of Protein L; pos 10 Y, pos 45 H, pos 60 Q) (designed binder) PKEEVTIKAYLIYADGKTQTAEFKGTFEEATAEAYRYADLLAKEHGKYTVDVADKGYTLQIKFAGKEKTPEE
– | – | 81 nM | 21 nM | pAM131 (B3 domain of Protein L; pos 10 Q, pos 45 H, pos 60 Y) (designed binder) PKEEVTIKAQLIYADGKTQTAEFKGTFEEATAEAYRYADLLAKEHGKYTVDVADKGYTLYIKFAGKEKTPEE
– | – | 64 nM | 18 nM | pAM137 (B3 domain of Protein L; pos 10 Y, pos 45 A, pos 60 Q) (designed binder) PKEEVTIKAYLIYADGKTQTAEFKGTFEEATAEAYRYADLLAKEAGKYTVDVADKGYTLQIKFAGKEKTPEE
– | – | 46 nM | 13 nM | pAM133 (B3 domain of Protein L; pos 10 Y, pos 45 A, pos 60 N) (designed binder) PKEEVTIKAYLIYADGKTQTAEFKGTFEEATAEAYRYADLLAKEAGKYTVDVADKGYTLNIKFAGKEKTPEE
– | – | 69 nM | 19 nM | pAM120 (B3 domain of Protein L; pos 10 N, pos 45 A, pos 60 Y) (designed binder) PKEEVTIKANLIYADGKTQTAEFKGTFEEATAEAYRYADLLAKEAGKYTVDVADKGYTLYIKFAGKEKTPEE
– | – | 73 nM | 18 nM | pAM138 (B3 domain of Protein L; pos 10 Y, pos 45 A, pos 60 Y) (designed binder) PKEEVTIKAYLIYADGKTQTAEFKGTFEEATAEAYRYADLLAKEAGKYTVDVADKGYTLYIKFAGKEKTPEE
– | – | 76 nM | 22 nM | pAM121 (B3 domain of Protein L; pos 10 N, pos 45 H, pos 60 Q) (designed binder) PKEEVTIKANLIYADGKTQTAEFKGTFEEATAEAYRYADLLAKEHGKYTVDVADKGYTLQIKFAGKEKTPEE
– | – | 89 nM | 25 nM | pAM122 (B3 domain of Protein L; pos 10 N, pos 45 H, pos 60 Y) (designed binder) PKEEVTIKANLIYADGKTQTAEFKGTFEEATAEAYRYADLLAKEHGKYTVDVADKGYTLYIKFAGKEKTPEE
17 nM | 60 nM | – | – | pAM239 (Protein L B4 domain; N10H, N45H, N60Q) (designed binder) PKEEVTIKAHLIYADGKTQTAEFKGTFAEATAEAYRYADLLAKEHGKYTADLEDGGYTIQIRFAGKKVDEKPEE
11 nM | 48 nM | – | – | pAM262 (D1 domain; N10H, N45H, N60Y) (designed binder) PKEEVTIKAHLIFADGKTQTAEFKGTFEEATAEAYRYADLLAKVHGEYTADLEDGGYTIYIKFAGKEQPGEN
